In experiment [1] the target is T1, NativeRPtag(large)_with_Tags_and_Cys (Thermoanaerobacter tengcongensis).
T1 construct: Unlabeled in anisotropy assays; coupled through the engineered N-terminal Cys to SulfoLink agarose or maleimide plates in column, pull-down and ELISA assays
T1 chain: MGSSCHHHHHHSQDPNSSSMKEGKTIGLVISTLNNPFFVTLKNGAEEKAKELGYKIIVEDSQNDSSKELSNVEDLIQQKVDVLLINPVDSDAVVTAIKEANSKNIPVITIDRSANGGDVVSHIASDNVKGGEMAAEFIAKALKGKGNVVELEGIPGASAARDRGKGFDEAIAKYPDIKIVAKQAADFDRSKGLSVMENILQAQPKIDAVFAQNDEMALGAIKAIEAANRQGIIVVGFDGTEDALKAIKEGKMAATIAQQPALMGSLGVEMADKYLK
In words: immobilized RPtag(large) column; bound in 3 M NaCl, eluted with 3 M imidazole.
Procedure: Briefly, columns, as described above, were first equilibrated with 10 mL 100 mM Tris pH 8.0, 3 M NaCl, 0.005% Tween20. […] The column was then washed with 10 mL of the same buffer. Finally, bound target molecules were eluted with 10 mL of 100 mM Tris pH 8.0, 3 M imidazole, 0.005% Tween20.

For experiment [2], the target named is T2, RPtag(large) f137d (Thermoanaerobacter tengcongensis).
T2 construct: also called F137D RPtag(large)
T2 chain: T1 chain with F137D
The experiment in a line: fluorescence anisotropy (FIG. 14).
Procedure: Resultant curves were fit with the equation f=y0+(ymax−y0)*(Ptot+x+Kd−sqrt((Ptot+x+Kd)\hat{ }2−4*Ptot*x))/(2*Ptot), where y0 is the baseline anisotropy, ymax is the maximum anisotropy, Ptot is the fixed concentration of labeled peptide used, x is the variable concentration of protein used, and Kd is the measured Kd. […] Buffer was 50 mM Tris pH 8.0, 0.005% tween20.

In experiment [3] the target is T3, MaturePDGF-β_NterminalPeptide.
T3 construct: an N-terminal G was added and is left out of the numbering; also called PDGF-β peptide
T3 peptide: RhodamineB-GSLGSLTIAEPAMIAE
In words: fluorescence anisotropy, 20 nM rhodamine PDGF-β N-terminal peptide.
Procedure: (§1) After the incubation, fluorescence anisotropy was measured, and the resultant curves were fit with the equation f=y0+(ymax−y0)*(Ptot+x+Kd−sqrt((Ptot+x+Kd)\hat{ }2−4*Ptot*x))/(2*Ptot), where y0 is the baseline anisotropy, ymax is the maximum anisotropy, Ptot is the fixed concentration of labeled peptide used, x is the variable concentration of protein used, and Kd is the measured Kd. […] Buffer was 50 mM Tris pH 8.0, 0.005% Tween20.

Experiment [4] addresses T4, PDGF-β dimer (recombinant, purified and refolded mature PDGF-β) (Homo sapiens (Human), UniProt P01127 82-190).
T4 construct: also called mature PDGF-β dimer
In words: fluorescence anisotropy; 100 nM FITC-labeled RPtag large double mutant, unlabeled PDGF-β dimer titrated, 1 h at room temperature. In general terms: Polarisation of emitted light reports the rotation of a fluorescent probe.
Procedure: After 1 h incubation at room temperature, fluorescence anisotropy was measured, and the resultant curves were fit to a standard binding equation.

The target in experiment [5] is T5, RPtag(small) Nd2, Cd4 (Thermoanaerobacter tengcongensis).
T5 peptide: RhodamineB-KIPNFIPAELKLITK
In words: fluorescence anisotropy, 2 nM rhodamine Nd2Cd4.
Procedure: as §1

Among the data in US20200102347A1 (AUCTUS BIOLOGIES, published 2020) are binding result and Kd values, retold here.

Positions count from the first letter of the chain named. Names may count otherwise. No end group written: not given here. *: point of attachment. RhodamineB = CCN(CC)c1ccc2c(-c3ccccc3C(=O)*)c3ccc(=[N+](CC)CC)cc-3oc2c1

T4 sequence (P01127 82-190): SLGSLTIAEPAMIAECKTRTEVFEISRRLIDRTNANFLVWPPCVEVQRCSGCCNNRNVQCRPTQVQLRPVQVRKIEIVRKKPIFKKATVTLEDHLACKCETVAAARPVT

B1: Nterminally_tagged_RPtag(small)Nd8,Cd4(fast)_tagRFP (other)
chain: MGSSPAELKLITKGSENLYFQGGSMVSKGEELIKENMHMKLYMEGTVNNHHFKCTSEGEGKPYEGTQTMRIKVVEGGPLPFAFDILATSFMYGSRTFINHTQGIPDFFKQSFPEGFTWERVTTYEDGGVLTATQDTSLQDGCLIYNVKIRGVNFPSNGPVMQKKTLGWEANTEMLYPADGGLEGRSDMALKLVGGGHLICNFKTTYRSKKPAKNLKMPGVYYVDHRLERIKEADKETYVEQHEVAVARYCDLPSKLGHKLNGSSGHHHHHHHH
notes: also called tagRFP containing an N-terminal RPtag (small) Nd8Cd4 tag
With B1, the binding result in experiment [1] was “binds”.

B2: RPtag(small) l14k (peptide)
peptide: RhodamineB-GEKIPNFIPAELKKITKENVQ
notes: also called L14K RPtag(small)
Take B2: the binding result in experiment [2] is listed as “binds”.

B3: RPtag(large) H122L, A253R double mutant (designed binder)
chain: T1 chain with H122L, A253R
notes: Unlabeled against the rhodamine peptides; also called RPtag (large) h1221, a253r; double mutant RPtag(large)
On to B3, for which the Kd is 1500 nM in experiment [3], 75 nM in experiment [4] and 3.1 nM in experiment [5].

As a reminder, the Kd is a measure of binding affinity in units of concentration.
